From article PMC7895813

Columns and labels:
[1] = target: Xenopus tropicalis MDM2 414-C (MDM2^f), GST-tag removed (Xenopus tropicalis (western clawed frog)); experiment: SEC; cleaved MDM2 variants after removal of the GST-tag on HiLoad 16/600 Superdex 75; oligomeric state by comparison with molecular weight markers
[2] = target: Xenopus tropicalis MDM2 414-C (MDM2^f), GST-tag removed (Xenopus tropicalis (western clawed frog)); experiment: crystal structure; free MDM2 RING domains (MDM2^z, MDM2^f); crystals grown at 19 °C by vapour diffusion
[3] = target: Xenopus tropicalis MDM2 414-C (MDM2^f), GST-tag removed (Xenopus tropicalis (western clawed frog)); experiment: crystal structure; MDM2^f or MDM2^hGT mixed with UbcH5B–Ub at 1:1 ratio; crystals grown at 19 °C by vapour diffusion
[4] = target: opossum MDM2 421-C, GST-tag removed (Monodelphis domestica (opossum)); experiment: SEC; GST-MDM2 variants (3 mg/mL) incubated with 1:10 TEV for 16-20 h at 4 °C; soluble fraction of the cleaved products on Superdex 75 Increase 10/300; comparison with molecular weight markers and SDS-PAGE

stoichiometry N [1] | stoichiometry N [2] | stoichiometry N [3] | stoichiometry N [4] | Substance
2 | 2 | 2 |  | Xenopus tropicalis MDM2 414-C (MDM2^f), GST-tag removed (domain or fragment)
 |  |  | 2 | opossum MDM2 421-C, GST-tag removed (domain or fragment)
